The values that follow come from patent publication US20040038293A1 (Novartis, published 2004).

Assay [1] addresses T1, recombinant soluble human CD154 (extracellular portion of human CD154 fused to mouse Cκ), trimeric (human; mouse, UniProt P29965 47-261).
T1 construct: extracellular domain; also called CD154-κ; soluble recombinant CD154; not shown: mouse immunoglobulin kappa constant region (Cκ)
T1 sequence (looked up): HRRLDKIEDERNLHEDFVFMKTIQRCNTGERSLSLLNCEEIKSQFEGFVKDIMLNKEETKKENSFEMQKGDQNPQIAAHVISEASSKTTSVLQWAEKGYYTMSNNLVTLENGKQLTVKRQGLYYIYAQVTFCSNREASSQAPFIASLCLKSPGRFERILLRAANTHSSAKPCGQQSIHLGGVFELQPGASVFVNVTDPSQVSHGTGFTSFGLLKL
The assay is described as follows: SPR (BIAcore), ABI793 immobilised, CD154-κ 10 to 160 nM in solution, n = 3. On the procedure: The association and dissociation rate constant for the binding of recombinant human CD154 to ABI793 is determined by BIAcore analysis. ABI793 is immobilized, and binding of soluble recombinant CD154 (CD154-κ) in a concentration range from 10 to 160 nM is measured by surface plasmon resonance. The chosen format represents a monovalent interaction. Data analysis is performed using the BIA evaluation software.

The target of assay [2] is T1, recombinant soluble human CD154 …. The assay is described as follows: cell-free competitive binding assay: CD154-κ immobilised, biotinylated soluble human CD40, Eu-streptavidin fluorimetry. On the procedure: The ability to inhibit the binding of CD154 to CD40 is tested in a cell-free competitive binding assay. Recombinant soluble human CD154 (i.e., the extracellular portion of human CD154 fused to mouse Cκ) is immobilized on microtiter plates and the plates incubated, in the presence or absence of a putative inhibitor, with biotinylated recombinant soluble human CD40. The fraction of CD40 bound to CD154 is fluorimetrically determined using Eu-labelled streptavidin as the detection reagent.

For assay [3] the target is unchanged. The assay is described as follows: cell-based or functional assay.

B1: ABI793 antibody (human anti-human CD154 monoclonal antibody from hybridoma # 207.2) (antibody, V domains shown)
VH: QVQLVQSGAEVQKPGSSVKVSCKASGGTFSNFAFNWVRQVPGQGLEWMGRILPSLDIASYAQKFQDRVTITADKSTSTAYMELSSLRSEDTAMYYCAREVDGGGFDYWGQGTLVTVSS
VL: DIQMTQSPSSLSASVGDRVTITCRASQGISSWLAWYQQKPEKAPKSLIYAASSLQSGVPSRFSGSGSGTDFTLTISSLQPEDFATYYCQQYNSYPFTFGGGTKVEIK
notes: FTC-labelled in part of the flow cytometry experiments; also called Antibody of the Invention
Regarding B1, in assay [1], the Kd was 23.1 nM, the koff came to 0.000538 s⁻¹ and the kon was 23400 M⁻¹ s⁻¹. For the same molecule, in assay [2], the IC50 is 0.075 µg/mL. For the same molecule, in assay [3], the “Inhibition of CD154/IL-4 driven B Cell Proliferation (3H-TdR uptake), IC50” value amounted to 0.073 µg/mL.

Usually Kd stands for the constant that tells how readily two partners part at equilibrium. What is called koff is a measure of how fast the partners let go of each other. A word on the kon: it is the rate constant with which the complex forms. For orientation: IC50 means the concentration needed to halve the response being measured.
